# Measured values: the supplement of paper PMC9170038
# What was measured:
# MS2 coat protein [1] = test: apparent KD of MS2 coat protein, switch ON state; designed switch direction (-1 OFF switch, 1 ON switch): -1; higher = weaker reporter binding; details: FMN input: 0 or 200 uM; Eterna round: R93 (includes R88 designs)
# Outline: (§1)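 Apparent KD was obtained for each design as the median of normalised binding-curve fits over its clusters. RNA switches transcribed on-chip from Illumina sequencing clusters were titrated with SNAP-549-labelled MS2 coat protein (twofold steps, 0.7 or 1.5 nM to 3 µM) in 100 mM Tris-HCl pH 7.5, 80 mM KCl, 4 mM MgCl2, without or with constant ligand.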
# MS2 coat protein [2] = test: apparent KD of MS2 coat protein, switch OFF state (with FMN for OFF switches, without FMN for ON switches); designed switch direction (-1 OFF switch, 1 ON switch): -1; higher = weaker reporter binding; details: FMN input: 0 or 200 uM; Eterna round: R93 (includes R88 designs)
# Outline: as §1
Sequence,apparent KD of MS2 coat protein (MS2 coat protein [1]) [nM],apparent KD of MS2 coat protein (MS2 coat protein [2]) [nM]
AAGAAUGCAGGAUAUACAUGAGGAUCACCCAUGUAAAAGAAAGAGGGAAAAGAGAAAAGUAGAAGGGCAAAGAA [Cleopatra III],26.1,37.6
AAGACUACAGGAUAUACAUGAGGAUCACCCAUGUAACUGACGGAUAGAUGACGGAGAAGUAGAAGGGUAGUCCA [Ruby 39],36.9,46.9
UAAAAGCGAGGAUAUACAUGAGGAUCACCCAUGUGAAAGAAAAAUAAAAAAAAAAAAAGUAGAAGGCGCUAAAA [Ex 3 #2],58.9,65.7
AACGAGUCAGGAUAUACAAAAAAUAAAUAAAUAAAAUAAAAGUAGAAGGGACAUGAGGAUCACCCAUGUAAAUA [JR_Exc004_Sub020],59.3,44
AUCAUGUAAGGAUAUGACUACAUAAAAAAAAAAAAAUGUAGUCAGAAGGUACAUGAGGAUCACCCAUGUACAAA [Mod of Brourd],27.6,29.4
AGCUAGUCAGGAUAUACGAACAUGUCGAAAGACGUGAAGGGACAUGAGGAUCACCCAUGUAGAAGGGACUAGCA [Mat - Exclusion 2 - JL mod - D1],34.2,120
AAGAAACAUGAGGAUCACCCAUGUCAGGAUAUACAAAAGAAAAGAAAAGAAAGAAGAAGUAGAAGGGACAAAGG [Neitiqerty Siptah],38.3,69.3
AAAAAACAUGAGGAUCACCCAUGUGAGGAUAUGCUAAAAAAAAUAAAAAUAAAACAUAGCAGAAGGCACACCAA [Amethyst 57],28.2,38.4
UUAGAACAUGAGGAUCACCCAUGUGAGGAUAUGCAAUACUAAAAAAAAGAUAAUUAUAGCAGAAGGCACGUAGU [JR_EXc001_Sub805],35.1,41.4
AAAAUACAUGAGGAUCACCCAUGUCAGGAUAUGCUAAAAAAAAAAUUAAAAAAAAAAUGUAGAAGGGACUAAAA [Exclusion Z2],53.7,40
AGCAAGUCAGGAUAUACGAAUAAGACAAAAGACGUGAAGGGACAUGAGGAUCACCCAUGUAGAAGGGACAAGCA [LROPPY Exclusion 2 - v01_mod Fisker],80.9,60.5
AAAAAACAUGAGGAUCACCCAUGUCAGGAUAUCUGUAUAAAUAAAAAAAUAAAAAUACAGAGAAGGGACAAAAA [Ex1: 608],50.5,51.7
GAAAUACAUGAGGAUCACCCAUGUGAGGAUAUGCUAUGGAAAUAAAAAAUAAAACAUAGCAGAAGGUACAAAAG [Mat - Exclusion 1 - Eli mod - D43],21.8,54.6
AAGAAACAUGAGGAUCACCCAUGUCAGGAUAUCAAAAAGAAAAGAAAAGAAAGAAGAAUGAGAAGGGACAAAGG [Meryibre Khety I],50.7,61.7
GAAGAACAUGAGGAUCACCCAUGUCAGGAUAUACAGAAGGGAAUAAAAUAACCUGAAAGUAGAAGGGACAAGAA [Ex 1 May 42],29,57.2
GCUUGGCAAGGAUAUACAUGAGGAUCACCCAUGUGAGAGAAAAAAGUGAGAAAGAAAAGUAGAAGGUGUUGAGG [salish99-ex3-76],44.4,48.9
AAAAAGGGAGGAUAUACAACACAGACAGAACAACAAACACAACAUGAGGAUCACCCAUGUAGAAGGCCCAAAAA [Default title],28.2,35.4

Sequence,apparent KD of MS2 coat protein (MS2 coat protein [1]) [nM],apparent KD of MS2 coat protein (MS2 coat protein [2]) [nM]
AAAAAACAUGAGGAUCACCCAUGUAAGGAUAUCUAAAAUAAAAGAAAAAUAAAGAAAAGGAGAAGGUACAUGCA [JL wbt mod 26],32,34.5
AAUUCACAUGAGGAUCACCCAUGUAAGGAUAUCGAAAUAAAACUAAUCAAUAAACAAACGAGAAGGUACAAAAA [Exclusion 1 design 8],20.4,24
AAAAAGAUAGGAUAUACGUACAUGUCGAAAGACGUGAAGGGACAUGAGGAUCACCCAUGUAGAAGGGUUAAAAA [Mat - Exclusion 2 - JL mod - D91],185,52.4
GGUUGUGGAGGAUAUACAUGAGGAUCACCCAUGUGAGAGAAAAAAGUGAGAAAGAAAAGUAGAAGGUCAUGACG [salish99-ex3-65],33.8,46.8
AAAAAGGCAGGAUAUACAUGAGGAUCACCCAUGUGCAAAAAAAAAAAAAAAAAAACAUGUAGAAGGGCCGAAAA [Skynet (1?)],45.2,86.3
AAAAAGUGAGGAUAUACAUGAGGAUCACCCAUGUGUAUAAAAAAUUACACAAAAGAAAGUAGAAGGCACUAAAG [Mat - Exclusion 3 - Mayanna mod - D112],17,30.8
UUCGCACAUGAGGAUCACCCAUGUCAGGAUAUCGUGGCGGGAAAAACCGGGAAACGCACGAGAAGGGACACACA [EX1 Malc#18 Mod 15 - Jieux - Exclusion 1],47.3,51.5
GCUGUGCAAGGAUAUACAUGAGGAUCACCCAUGUGAGAGAAAAAAGUGAGAAAGAAAAGUAGAAGGUGCGUAGG [salish99-ex3-99],36.5,43.3
AAUAAACAUGAGGAUCACCCAUGUGAGGAUAUACAAAUAAAUAAAAAUAAAAUAAAAAGUAGAAGGCACAAUAA [JR_Exc001_Sub001],23.5,27.8
AGGAAACAUGAGGAUCACCCAUGUGAGGAUAUUGAAAAGAAAAGAAAAGAAAGAAGAACAAGAAGGCACAAGAA [Tiu],29.6,31.5
AAAGAUGCAGGAUAUACAUGAGGAUCACCCAUGUUAGACCUGAAAAAGGGAAAAGAAAGUAGAAGGGCAUAAUA [Ex 3 May 31],12.8,11.5
UCCAGACAUGAGGAUCACCCAUGUCAGGAUAUCUAGAAAACCUCAUGUAAAAAAAACUAGAGAAGGGAUAUGGA [Design 95: Pseudoknot E],15.2,14.8
AAAAUACAUGAGGAUCACCCAUGUGAGGAUAUGCAAAACCCAUAUAAAAAGGGAAAAAGCAGAAGGUACAAAAA [wbt round 1 mod 14],18.6,27.7
AAGAGGCUAGGAUAUACAUAUCUGAUGACUCAUCCUAAAACACAUGAGGAUCACCCAUGUAGAAGGAGCGAAUG [Anledi],19.2,16.5
AACAGUACAGGAUAUACAUGAGGAUCACCCAUGUAAAAAGGGAGUGGCGUACCACAAAGUAGAAGGGUACUGGA [Moding Maslow revisited (73) 7],36.9,172
ACUUAUGAAGGAUAUACUAACAACAUACACUCAACACACACACAUGAGGAUCACCCAUGUAGAAGGUCAAACAU [JR_Exc002_Sub1205],19.6,18.2
AGAAUACAUGAGGAUCACCCAUGUGAGGAUAUGUAGAUAAAAAUAAAAUAAAAUAAAUACAGAAGGCACAAAAG [EX 1 May 19],61.3,59.7
